B1: bZIP63 (protoplast two-hybrid fusion) [Arabidopsis thaliana] / bZIP63 (protoplast two-hybrid fusion) [Arabidopsis thaliana] (parent)
chain 1: MEKVFSDEEISGNHHWSVNGMTSLNRSASEWAFNRFIQESSAAADDGESTTACGVSVSSPPNVPVDSEEYRAFLKSKLNLACAAVAMKRGTFIKPQDTSGRSDNGGANESEQASLASSKATPMMSSAITSGSELSGDEEEADGETNMNPTNVKRVKRMLSNRESARRSRRRKQAHLSELETQVSQLRVENSKLMKGLTDVTQTFNDASVENRVLKANIETLRAKVKMAEETVKRLTGFNPMFHNMPQIVSTVSLPSETSNSPDTTSSQVTTPEIISSGNKGKALIGCKMNRTASMRRVESLEHLQKRIRSVGDQ
chain 2: B1 chain 1
B2: bZIP63 (protoplast two-hybrid fusion) [Arabidopsis thaliana] / bZIP11 (protoplast two-hybrid fusion) [Arabidopsis thaliana] (parent)
chain 1: B1 chain 1
chain 2: MESSSSGTTSSTIQTSSGSEESLMEQRKRKRMLSNRESARRSRMKKQKLLDDLTAQVNHLKKENTEIVTSVSITTQHYLTVEAENSVLRAQLDELNHRLQSLNDIIEFLDSSNNNNNNNMGMCSNPLVGLECDDFFVNQMNMSYIMNQPLMASSDALMY

The variants in assay [1] derive from B1. Description: protoplast two-hybrid (P2H) assay. The note with it: for response (% of signal with wt bZIP63 and AKIN10): - AKIN10 (no co-transformation), parent: 13, read off a plot; for percent of parent: with bZIP63 (protoplast two-hybrid fusion) [Arabidopsis thaliana], + AKIN10 co-transformation, parent: 100, read off a plot.
Variants of B2 are the subject of assay [2]. As to the kind of experiment: protoplast two-hybrid (P2H) assay. The note with it: for response (% of signal with wt bZIP63 and AKIN10): - AKIN10 (no co-transformation), parent: 8, read off a plot; for percent of parent: with bZIP11 (protoplast two-hybrid fusion) [Arabidopsis thaliana], + AKIN10 co-transformation, parent: 100, read off a plot.

For the variant chain 1 MEKVFSDEEISGNHHWSVNGMTSLNRSAAEWAFNRFIQESSAAADDGESTTACGVSVSSPPNVPVDSEEYRAFLKSKLNLACAAVAMKRGTFIKPQDTSGRSDNGGANESEQASLASSKATPMMSSAITSGSELSGDEEEADGETNMNPTNVKRVKRMLSNRESARRSRRRKQAHLSELETQVSQLRVENSKLMKGLTDVTQTFNDASVENRVLKANIETLRAKVKMAEETVKRLTGFNPMFHNMPQIVSTVSLPSETSNSPDTTSSQVTTPEIISSGNKGKALIGCKMNRTAAMRRVEALEHLQKRIRSVGDQ [chain 1 S29A S294A S300A], the response (% of signal with wt bZIP63 and AKIN10) in assay [1] is 11.

Consider chain 1 MEKVFSDEEISGNHHWSVNGMTSLNRSASEWAFNRFIQESSAAADDGESTTACGVSVSSPPNVPVDSEEYRAFLKSKLNLACAAVAMKRGTFIKPQDTSGRSDNGGANESEQASLASSKATPMMSSAITSGSELSGDEEEADGETNMNPTNVKRVKRMLSNRESARRSRRRKQAHLSELETQVSQLRVENSKLMKGLTDVTQTFNDASVENRVLKANIETLRAKVKMAEETVKRLTGFNPMFHNMPQIVSTVSLPSETSNSPDTTSSQVTTPEIISSGNKGKALIGCKMNRTASMRRVEALEHLQKRIRSVGDQ [chain 1 S300A], for which, in assay [1], the response (% of signal with wt bZIP63 and AKIN10) amounted to 8; the percent of parent was determined as 79%.

For the variant chain 1 MEKVFSDEEISGNHHWSVNGMTSLNRSASEWAFNRFIQESSAAADDGESTTACGVSVSSPPNVPVDSEEYRAFLKSKLNLACAAVAMKRGTFIKPQDTSGRSDNGGANESEQASLASSKATPMMSSAITSGSELSGDEEEADGETNMNPTNVKRVKRMLSNRESARRSRRRKQAHLSELETQVSQLRVENSKLMKGLTDVTQTFNDASVENRVLKANIETLRAKVKMAEETVKRLTGFNPMFHNMPQIVSTVSLPSETSNSPDTTSSQVTTPEIISSGNKGKALIGCKMNRTAAMRRVESLEHLQKRIRSVGDQ [chain 1 S294A], in assay [1], the response (% of signal with wt bZIP63 and AKIN10) worked out at 10; the percent of parent worked out at 75%.

In the case of chain 1 MEKVFSDEEISGNHHWSVNGMTSLNRSAAEWAFNRFIQESSAAADDGESTTACGVSVSSPPNVPVDSEEYRAFLKSKLNLACAAVAMKRGTFIKPQDTSGRSDNGGANESEQASLASSKATPMMSSAITSGSELSGDEEEADGETNMNPTNVKRVKRMLSNRESARRSRRRKQAHLSELETQVSQLRVENSKLMKGLTDVTQTFNDASVENRVLKANIETLRAKVKMAEETVKRLTGFNPMFHNMPQIVSTVSLPSETSNSPDTTSSQVTTPEIISSGNKGKALIGCKMNRTASMRRVESLEHLQKRIRSVGDQ [chain 1 S29A], in assay [1], the response (% of signal with wt bZIP63 and AKIN10) amounted to 7; the percent of parent is 44%.

In the case of chain 1 MEKVFSDEEISGNHHWSVNGMTSLNRSASEWAFNRFIQESSAAADDGESTTACGVSVSSPPNVPVDSEEYRAFLKSKLNLACAAVAMKRGTFIKPQDTSGRSDNGGANESEQASLASSKATPMMSSAITSGSELSGDEEEADGETNMNPTNVKRVKRMLSNRESARRSRRRKQAHLSELETQVSQLRVENSKLMKGLTDVTQTFNDASVENRVLKANIETLRAKVKMAEETVKRLTGFNPMFHNMPQIVSTVSLPSETSNSPDTTSSQVTTPEIISSGNKGKALIGCKMNRTAAMRRVEALEHLQKRIRSVGDQ [chain 1 S294A S300A], in assay [1], the response (% of signal with wt bZIP63 and AKIN10) worked out at 10; the percent of parent was determined as 67%.

As to chain 1 MEKVFSDEEISGNHHWSVNGMTSLNRSASEWAFNRFIQESSAAADDGESTTACGVSVSSPPNVPVDSEEYRAFLKSKLNLACAAVAMKRGTFIKPQDTSGRSDNGGANESEQASLASSKATPMMSSAITSGSELSGDEEEADGETNMNPTNVKRVKRMLSNRESARRSRRRKQAHLSELETQVSQLRVENSKLMKGLTDVTQTFNDASVENRVLKANIETLRAKVKMAEETVKRLTGFNPMFHNMPQIVSTVSLPSETSNSPDTTSSQVTTPEIISSGNKGKALIGCKMNRTASMRRVEALEHLQKRIRSVGDQ [chain 1 S300A], in assay [2], the response (% of signal with wt bZIP63 and AKIN10) was determined as 13; the percent of parent turned out to be 100%.

Turning to chain 1 MEKVFSDEEISGNHHWSVNGMTSLNRSASEWAFNRFIQESSAAADDGESTTACGVSVSSPPNVPVDSEEYRAFLKSKLNLACAAVAMKRGTFIKPQDTSGRSDNGGANESEQASLASSKATPMMSSAITSGSELSGDEEEADGETNMNPTNVKRVKRMLSNRESARRSRRRKQAHLSELETQVSQLRVENSKLMKGLTDVTQTFNDASVENRVLKANIETLRAKVKMAEETVKRLTGFNPMFHNMPQIVSTVSLPSETSNSPDTTSSQVTTPEIISSGNKGKALIGCKMNRTAAMRRVEALEHLQKRIRSVGDQ [chain 1 S294A S300A], in assay [2], the response (% of signal with wt bZIP63 and AKIN10) amounted to 10; the percent of parent stood at 110%.

On to chain 1 MEKVFSDEEISGNHHWSVNGMTSLNRSAAEWAFNRFIQESSAAADDGESTTACGVSVSSPPNVPVDSEEYRAFLKSKLNLACAAVAMKRGTFIKPQDTSGRSDNGGANESEQASLASSKATPMMSSAITSGSELSGDEEEADGETNMNPTNVKRVKRMLSNRESARRSRRRKQAHLSELETQVSQLRVENSKLMKGLTDVTQTFNDASVENRVLKANIETLRAKVKMAEETVKRLTGFNPMFHNMPQIVSTVSLPSETSNSPDTTSSQVTTPEIISSGNKGKALIGCKMNRTASMRRVESLEHLQKRIRSVGDQ [chain 1 S29A], for which, in assay [2], the response (% of signal with wt bZIP63 and AKIN10) was found to be 11; the percent of parent is 32%.

For the variant chain 1 MEKVFSDEEISGNHHWSVNGMTSLNRSASEWAFNRFIQESSAAADDGESTTACGVSVSSPPNVPVDSEEYRAFLKSKLNLACAAVAMKRGTFIKPQDTSGRSDNGGANESEQASLASSKATPMMSSAITSGSELSGDEEEADGETNMNPTNVKRVKRMLSNRESARRSRRRKQAHLSELETQVSQLRVENSKLMKGLTDVTQTFNDASVENRVLKANIETLRAKVKMAEETVKRLTGFNPMFHNMPQIVSTVSLPSETSNSPDTTSSQVTTPEIISSGNKGKALIGCKMNRTAAMRRVESLEHLQKRIRSVGDQ [chain 1 S294A], in assay [2], the response (% of signal with wt bZIP63 and AKIN10) amounted to 7; the percent of parent was 110%.

On to chain 1 MEKVFSDEEISGNHHWSVNGMTSLNRSAAEWAFNRFIQESSAAADDGESTTACGVSVSSPPNVPVDSEEYRAFLKSKLNLACAAVAMKRGTFIKPQDTSGRSDNGGANESEQASLASSKATPMMSSAITSGSELSGDEEEADGETNMNPTNVKRVKRMLSNRESARRSRRRKQAHLSELETQVSQLRVENSKLMKGLTDVTQTFNDASVENRVLKANIETLRAKVKMAEETVKRLTGFNPMFHNMPQIVSTVSLPSETSNSPDTTSSQVTTPEIISSGNKGKALIGCKMNRTAAMRRVEALEHLQKRIRSVGDQ [chain 1 S29A S294A S300A], for which, in assay [2], the response (% of signal with wt bZIP63 and AKIN10) was determined as 7.5; the percent of parent came to 27%.

(Values after paper PMC4558565.)
